Drawing on patent publication US20120207721A1 (AARHUS UNIVERSITET, published 2012), this text covers Kd for one molecule.

In general, Kd refers to the free concentration of one partner at which half of the binding sites on the other are occupied at equilibrium, for simple one-to-one binding.

The target of this experiment is T1, soluble insulin receptor (IR) (R&D systems, 28-956) (UniProt P06213 28-956).
T1 construct: extracellular domain; Bought protein, coupled to a CM5 chip by NHS/EDC; It may be the same product as m8; also called soluble IR; immobilized soluble insulin receptor
As to the kind of experiment: SPR (Biacore), soluble IR coupled to CM5 chip, soluble SorCS1 as analyte. For orientation: Surface plasmon resonance follows binding to a sensor surface in real time, without labels.

B1: soluble full-length extracellular part of SorCS1 (receptor)
chain: SGADQEKAERGEGASRSPRGVLRDGGQQEPGTRERDPDKATRFRMEELRLTSTTFALTGDSAHNQAMVHWSGHNSSVILILTKLYDYNLGSITESSLWRSTDYGTTYEKLNDKVGLKTILSYLYVCPTNKRKIMLLTDPEIESSLLISSDEGATYQKYRLNFYIQSLLFHPKQEDWILAYSQDQKLYSSAEFGRRWQLIQEGVVPNRFYWSVMGSNKEPDLVHLEARTVDGHSHYLTCRMQNCTEANRNQPFPGYIDPDSLIVQDHYVFVQLTSGGRPHYYVSYRRNAFAQMKLPKYALPKDMHVISTDENQVFAAVQEWNQNDTYNLYISDTRGVYFTLALENVQSSRGPEGNIMIDLYEVAGIKGMFLANKKIDNQVKTFITYNKGRDWRLLQAPDTDLRGDPVHCLLPYCSLHLHLKVSENPYTSGIIASKDTAPSIIVASGNIGSELSDTDISMFVSSDAGNTWRQIFEEEHSVLYLDQGGVLVAMKHTSLPIRHLWLSFDEGRSWSKYSFTSIPLFVDGVLGEPGEETLIMTVFGHFSHRSEWQLVKVDYKSIFDRRCAEEDYRPWQLHSQGEACIMGAKRIYKKRKSERKCMQGKYAGAMESEPCVCTEADFDCDYGYERHSNGQCLPAFWFNPSSLSKDCSLGQSYLNSTGYRKVVSNNCTDGVREQYTAKPQKCPGKAPRGLRIVTADGKLTAEQGHNVTLMVQLEEGDVQRTLIQVDFGDGIAVSYVNLSSMEDGIKHVYQNVGIFRVTVQVDNSLGSDSAVLYLHVTCPLEHVHLSLPFVTTKNKEVNATAVLWPSQVGTLTYVWWYGNNTEPLITLEGSISFRFTSEGMNTITVQVSAGNAILQDTKTIAVYEEFRSLRLSFSPNLDDYNPDIPEWRRDIGRVIKKSLVEATGVPGQHILVAVLPGLPTTAELFVLPYQDPAGENKRSTDDLEQISELLIHTLNQNSVHFELKPGVRVLVHAAHLTAAPLVDLTPTHSG
As for B1, the Kd is roughly 5 nM.
